Molecular target: human CXCR4 (C-X-C chemokine receptor type 4), endogenous on human leukemia cell lines (human) (UniProt P61073)
Assay: cell-based or functional assay

Chain of UniProt P61073 (P61073 whole entry): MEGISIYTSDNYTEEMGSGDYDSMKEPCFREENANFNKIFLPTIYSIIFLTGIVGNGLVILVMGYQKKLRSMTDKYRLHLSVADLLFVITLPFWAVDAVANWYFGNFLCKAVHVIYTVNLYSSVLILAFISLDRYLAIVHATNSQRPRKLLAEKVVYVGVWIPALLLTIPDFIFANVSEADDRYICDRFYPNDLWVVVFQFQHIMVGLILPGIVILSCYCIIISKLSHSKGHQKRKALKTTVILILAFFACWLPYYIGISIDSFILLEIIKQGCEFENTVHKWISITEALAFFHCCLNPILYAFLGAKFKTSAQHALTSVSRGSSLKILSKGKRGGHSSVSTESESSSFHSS

stimulation of migration of BV-173 cells (chemotaxis assay), half-maximal stimulation: 3 nM | stimulation of migration of Jurkat cells (chemotaxis assay), half-maximal stimulation: 0.3 nM | stimulation of migration of Nalm-6 cells (chemotaxis assay), half-maximal stimulation: 0.3 nM | stimulation of migration of U937 cells (chemotaxis assay), half-maximal stimulation: 3 nM
Substance: human CXCL12α (ligand)
